# Test results: the supplement of paper PMC7877785
# ± gives the uncertainty stated by the source.
# Assay: self-splicing fitness, log relative to wild type (ln ratio); higher = more splicing; Tetrahymena group I intron in knt gene, E. coli kanamycin selection, DiMSum; sequences stand for … in CUCUCU…GGAGGGAAAAGUUAUCAGGCAUGCACCUGGUAGCUAGUCUUUAAACCAAUAGAUUGCAUCGGUUUAAAAGGCAAGACCGUCAAAUUGCGGGAAAGGGGUCAACAGCCGUUCAGUACCAAGUCUCAGGGGAAACUUUGAGAUGGCCUUGCAAAGGGUAUGGUAAUAAGCUGACGGACAUGGUCCUAACCACGCAGCCAAGUCCUAAGUCAACAGAUCUUCUGUUGAUAUGGAUGCAGUUCACAGACUAAAUGUCGGUCGGGGAAGAUGUAUUCUUCUCAUAAGAUAUAGUCGGACCUCUCCUUAAUGGGAGCUAGCGGAUGAAGUGAUGCAACACUGGAGCCGCUGGGAACUAAUUUGUAUGCGAAAGUAUAUUGAUUAGUUUUGGAGUACUCGUGGUCG
# Outline: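 Pooled colonies went to amplicon sequencing on an Illumina HiSeq 2500 after six replicate transformations. The plates were LB agar with 100 μg/mL carbenicillin, 50 μM IPTG and 0.2% rhamnose, with or without 25 μg/mL kanamycin, incubated overnight at 37°C or 30°C. The E. coli BL21(DE3) library had all eight P1ex-region intron nucleotides randomised, the intron placed in the knt kanamycin-resistance gene on pET-22b(+). DiMSum fitness is the error-weighted combination of replicate fold changes, kanamycin against none, normalised to wild type.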
Sequence,self-splicing fitness (ln) (30 °C),self-splicing fitness (ln) (37 °C)
CUAUAGCAAUAUUACGGCAA,-3.31 ± 0.29,-2.63 ± 0.45
CUAUAGCAAUAUUACGGCAU,-3.11 ± 0.25,-2.37 ± 0.24
CUAUAGCAAUAUUACGGCUC,-3.46 ± 0.36,-2.47 ± 0.48
CUAUAGCAAUAUUACGGGCU,-2.63 ± 0.19,-3.38 ± 0.39
CUAUAGCAAUAUUACGUGCA,-3.24 ± 0.18,-2.37 ± 0.19
CUAUAGCAAUAUUACGUGUU,-3.74 ± 0.16,-3.15 ± 0.27
CUAUAGCAAUAUUACGUUCA,-2.87 ± 0.24,-2.93 ± 0.35
CUCAAGCAAUAUUACGACCA,,-0.985 ± 0.26
CUCAAGCAAUAUUACGAGCA,,-2.49 ± 0.33
CUCAAGCAAUAUUACGAGUU,-3.34 ± 0.15,-2.52 ± 0.15
CUCAAGCAAUAUUACGAUAU,-2.97 ± 0.14,-1.61 ± 0.14
CUCAAGCAAUAUUACGCAGG,-2.99 ± 0.23,-2.84 ± 0.31
CUCAAGCAAUAUUACGCAUC,-3.63 ± 0.23,-2.3 ± 0.25
CUCAAGCAAUAUUACGGCAG,-2.26 ± 0.068,-0.745 ± 0.092
CUCAAGCAAUAUUACGGCGU,-2.09 ± 0.23,-2.39 ± 0.46
CUCAAGCAAUAUUACGGGCU,-4.09 ± 0.27,-3 ± 0.26
CUCAAGCAAUAUUACGGGGU,-3.4 ± 0.15,-3.44 ± 0.19
CUCAAGCAAUAUUACGGGUU,-3.49 ± 0.17,-1.4 ± 0.13
CUCAAGCAAUAUUACGUAUC,-2.94 ± 0.14,-1.79 ± 0.14
CUCAAGCAAUAUUACGUCGC,-4.2 ± 0.39,-2.27 ± 0.33
CUCAAGCAAUAUUACGUCUA,-3.15 ± 0.16,-2.07 ± 0.14
CUCAAGCAAUAUUACGUCUG,-4.24 ± 0.28,-1.36 ± 0.17
CUCAAGCAAUAUUACGUUAC,-4.46 ± 0.31,-3.47 ± 0.29
CUCAAGCAAUAUUACGUUAG,-2.26 ± 0.062,-1.47 ± 0.075
CUCAAGCAAUAUUACGUUAU,-3.81 ± 0.15,-3.39 ± 0.2
CUCAAGCAAUAUUACGUUCU,-3.9 ± 0.19,-2.68 ± 0.17

Sequence,self-splicing fitness (ln) (30 °C),self-splicing fitness (ln) (37 °C)
CUCAAGCAAUAUUACGUUUA,-3.93 ± 0.24,-2.65 ± 0.16
CUCCAGCAAUAUUACGAAAU,-2.83 ± 0.19,-1.75 ± 0.31
CUCCAGCAAUAUUACGAAGG,-3.5 ± 0.32,-2.13 ± 0.23
CUCCAGCAAUAUUACGACAC,-2.74 ± 0.33,-1.12 ± 0.34
CUCCAGCAAUAUUACGAUCU,-4.21 ± 0.27,-1.16 ± 0.12
CUCCAGCAAUAUUACGAUUA,-2.63 ± 0.32,-2.37 ± 0.37
CUCCAGCAAUAUUACGCAGA,-3.72 ± 0.35,-1.94 ± 0.2
CUCCAGCAAUAUUACGCUAG,-3.91 ± 0.17,-2.7 ± 0.2
CUCCAGCAAUAUUACGGAGC,-1.83 ± 0.12,-2.69 ± 0.2
CUCCAGCAAUAUUACGGAGU,-4.09 ± 0.31,-1.28 ± 0.19
CUCCAGCAAUAUUACGGAUC,-1.86 ± 0.099,-1.47 ± 0.14
CUCCAGCAAUAUUACGGAUU,-2.59 ± 0.26,-2.07 ± 0.18
CUCCAGCAAUAUUACGGCCA,-2.94 ± 0.25,
CUCCAGCAAUAUUACGGCUU,-1.73 ± 0.19,-2.76 ± 0.31
CUCCAGCAAUAUUACGGGAU,-2.92 ± 0.11,-1.18 ± 0.1
CUCCAGCAAUAUUACGGUUU,-2.02 ± 0.11,-2.39 ± 0.19
CUCCAGCAAUAUUACGUAAU,-4.88 ± 0.23,-3.21 ± 0.2
CUCCAGCAAUAUUACGUCAA,-3.08 ± 0.19,-3.24 ± 0.23
CUCCAGCAAUAUUACGUCGA,-4.42 ± 0.27,-2.73 ± 0.17
CUCCAGCAAUAUUACGUGUA,-2.95 ± 0.14,-2.82 ± 0.19
CUCCAGCAAUAUUACGUUAC,-3.6 ± 0.18,-2.42 ± 0.2
CUCCAGCAAUAUUACGUUCA,-3.32 ± 0.29,-2.85 ± 0.25
CUCCAGCAAUAUUACGUUGU,-4.22 ± 0.15,-3.49 ± 0.21
CUCGAGCAAUAUUACGAACA,-1.56 ± 0.41,-2.03 ± 0.49
CUCGAGCAAUAUUACGACAC,-2.69 ± 0.27,
CUCGAGCAAUAUUACGACAU,-3.527 ± 0.027,-2.07 ± 0.038

Sequence,self-splicing fitness (ln) (30 °C),self-splicing fitness (ln) (37 °C)
CUCGAGCAAUAUUACGAUAG,-1.11 ± 0.15,-0.333 ± 0.15
CUCGAGCAAUAUUACGAUCG,,-1.71 ± 0.28
CUCGAGCAAUAUUACGCAAA,-2.55 ± 0.33,-3.66 ± 0.46
CUCGAGCAAUAUUACGCAGA,-2.04 ± 0.35,-0.967 ± 0.17
CUCGAGCAAUAUUACGCCUU,-2.45 ± 0.15,-2.72 ± 0.37
CUCGAGCAAUAUUACGCGAA,-3.3 ± 0.34,-2.41 ± 0.37
CUCGAGCAAUAUUACGCGGA,-3.05 ± 0.24,-2.63 ± 0.22
CUCGAGCAAUAUUACGCGUA,-2.97 ± 0.48,-1.59 ± 0.23
CUCGAGCAAUAUUACGCUGC,-3.61 ± 0.42,
CUCGAGCAAUAUUACGGAGU,-3.07 ± 0.22,-2.57 ± 0.31
CUCGAGCAAUAUUACGGGUU,-3.47 ± 0.14,-3.05 ± 0.16
CUCGAGCAAUAUUACGUACU,-2.68 ± 0.2,-3.11 ± 0.33
CUCGAGCAAUAUUACGUAGA,-3.34 ± 0.21,-1.64 ± 0.14
CUCGAGCAAUAUUACGUCGC,-4.4 ± 0.36,-1.12 ± 0.19
CUCGAGCAAUAUUACGUCGU,-1.77 ± 0.26,-1.88 ± 0.37
CUCGAGCAAUAUUACGUCUC,-2.55 ± 0.23,-2.5 ± 0.39
CUCGAGCAAUAUUACGUGGG,-3.08 ± 0.14,-2.88 ± 0.2
CUCGAGCAAUAUUACGUGGU,-3.41 ± 0.16,-2.49 ± 0.18
CUCGAGCAAUAUUACGUUAG,-3.81 ± 0.21,-1.37 ± 0.14
CUCGAGCAAUAUUACGUUAU,-3.99 ± 0.36,-2.72 ± 0.3
CUCGAGCAAUAUUACGUUGU,-4.17 ± 0.18,-2.07 ± 0.14
CUCUAGCAAUAUUACGAAUU,-3.81 ± 0.29,-3.19 ± 0.4
CUCUAGCAAUAUUACGACUA,,-1.71 ± 0.28
CUCUAGCAAUAUUACGCCCA,-2.25 ± 0.4,
CUCUAGCAAUAUUACGCCUG,-2.33 ± 0.36,
CUCUAGCAAUAUUACGCGGA,-3.1 ± 0.4,-1.9 ± 0.34
